Patent publication US20170014524A1 (CALIFORNIA INSTITUTE FOR BIOMEDICAL RESEARCH, published 2017)

Target: CXCR4 (C-X-C chemokine receptor type 4) (UniProt P61073 1-352, limits assumed)
Test: cell-based or functional assay

Sequence of CXCR4 (C-X-C chemokine receptor type 4) (P61073 whole entry): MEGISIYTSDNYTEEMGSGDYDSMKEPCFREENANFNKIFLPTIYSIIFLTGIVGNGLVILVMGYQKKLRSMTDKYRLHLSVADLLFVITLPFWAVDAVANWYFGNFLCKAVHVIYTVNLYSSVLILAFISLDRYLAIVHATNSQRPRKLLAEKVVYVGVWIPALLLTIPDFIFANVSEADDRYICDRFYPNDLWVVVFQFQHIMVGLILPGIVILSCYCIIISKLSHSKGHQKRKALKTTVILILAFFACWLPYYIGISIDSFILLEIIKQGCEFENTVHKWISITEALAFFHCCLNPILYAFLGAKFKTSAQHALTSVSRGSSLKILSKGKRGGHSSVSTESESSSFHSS

| Binder | IC50 (nM), cytotoxicity, Ramos (CXCR4+) cells, CellTiter-Glo, 4 days | IC50 (nM), cytotoxicity, Jurkat (CXCR4+) cells, CellTiter-Glo, 4 days |
| --- | --- | --- |
| anti-CXCR4 IgG antibody HLCX (antibody, V domains shown) VH: QVQLVESGGGLVQPGGSLRLSCAASGFNIKDTYIHWVRQAPGKGLEWVARIYPTNGYTRYADSVKGRFTISADTSKNTAYLQMNSLRAEDTAVYYCSRETKKYQSYRKCRGGRRWCYQKSYTYNYEDYWGQGTLVTVSS VL: not shown | 89.4 nM |  |
| anti-CXCR4-NC-MMAE conjugate (antibody, human IgG1, kappa, V domains shown, MMAE on a non-cleavable linker coupled by NHS ester to surface-exposed lysine residues, non-specific; estimated DAR ~2-3) VH: QVQLVESGGGLVQPGGSLRLSCAASGFNIKDTYIHWVRQAPGKGLEWVARIYPTNGYTRYADSVKGRFTISADTSKNTAYLQMNSLRAEDTAVYYCSRETKKYQSYRKCRGGRRWCYQKSYTYNYEDYWGQGTLVTVSS VL: not shown | 0.89 nM | 4.6 nM |
| anti-CXCR4-ValCit-MMAE conjugate (antibody, human IgG1, kappa, V domains shown, auristatin on a Val-Cit linker coupled by NHS ester to surface-exposed lysine residues, non-specific; estimated DAR ~2-3) VH: QVQLVESGGGLVQPGGSLRLSCAASGFNIKDTYIHWVRQAPGKGLEWVARIYPTNGYTRYADSVKGRFTISADTSKNTAYLQMNSLRAEDTAVYYCSRETKKYQSYRKCRGGRRWCYQKSYTYNYEDYWGQGTLVTVSS VL: not shown | 2 nM | 9.2 nM |
